Consider four molecules from patent publication US20180311369A1 (WRIGHT STATE UNIVERSITY, published 2018).

The target of assay [1] is T1, MAGI-1 PDZ1 domain (Rattus norvegicus (Rat), UniProt Q4L1J4 475-542, limits assumed).
T1 construct: also called MAGI-PDZ-1
Description: ligand binding assay with purified MAGI-1 PDZ1.

The target of assay [2] is T2, MAGI-1 PDZ3 domain (Rattus norvegicus (Rat), UniProt Q4L1J4 846-921, limits assumed). The assay can be described thus: ligand binding assay with purified MAGI-1 PDZ3.
Assay [3] deals with T2, MAGI-1 PDZ3 domain. Description: ligand binding assay with purified PDZ domain.
Assay [4] has as its target T1, MAGI-1 PDZ1 domain. Description: ligand binding assay with purified PDZ domain.

T2 sequence (Q4L1J4 846-921 limits assumed): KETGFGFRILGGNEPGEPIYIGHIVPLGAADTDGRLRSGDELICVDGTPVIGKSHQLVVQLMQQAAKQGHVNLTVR
T1 sequence (Q4L1J4 475-542 limits assumed): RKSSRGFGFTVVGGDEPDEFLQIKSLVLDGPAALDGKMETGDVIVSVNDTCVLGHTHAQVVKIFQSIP

Take GRKKRRQRRRPPQYKTDGITVV (also called TAT-PDZ3 peptide) [TAT-CAR^Ex8]: the Kd (usually the constant that tells how readily two partners part at equilibrium) was determined as 23 nM with MAGI-1 PDZ1 domain [1] and 4 nM with MAGI-1 PDZ3 domain [2].

As for GRKKRRQRRRPPQGGKKKETLV (also called TAT-PDZ1 peptide) [TAT-NET1], in the assay with MAGI-1 PDZ1 domain [1], the Kd turned out to be 28 nM. In addition, the binding result with MAGI-1 PDZ3 domain [3] was “no binding”.

GRKKRRQRRRPPQAQSQAGSLV (also called TAT-PDZ3 peptide) [TAT-ESAM] came in with a Kd with MAGI-1 PDZ3 domain [2] of 17 nM. Also, in the assay with MAGI-1 PDZ1 domain [4], the binding result is listed as “no binding”.

GRKKRRQRRRPPQSRTRRETQL (also called TAT-E6) [TAT-HPV E6] had a Kd with MAGI-1 PDZ1 domain [1] of 15 nM. In the assay with MAGI-1 PDZ3 domain [3], the binding result was “no binding”.
